The source of these data is patent publication US20260125448A1 (published 2026).

This experiment has as its target T1, MAGE-A4 (peptide named MA4-286) peptide on HLA-A*02:01 (human).
T1 peptide: KVLEHVVRV
The experiment in a line: multimer staining.

B1: MA4-286 G6 TCR (TCR, V domains shown)
Valpha: AQTVTQSQPEMSVQEAETVTLSCTYDTSENNYYLFWYKQPPSRQMILVIRQEAYKQQNATENRFSVNFQKAAKSFSLKISDSQLGDTAMYFCASHSGAGSYQLTFGKGTKLSVIP
Vbeta: DTGVSQDPRHKITKRGQNVTFRCDPISEHNRLYWYRQTLGQGPEFLTYFQNEAQLEKSRLLSDRFSAERPKGSFSTLEIQRTEQGDSAMYLCASSPTGGFYEQYFGPGTRLTVT
In the case of B1, the binding result is “recognises”.
